For series [1] the following is noted: reference 24; cited from earlier work.
Series [2] is described as follows: Blood clearance from venous blood samples during PET scan. The class given is in vivo, monkey. As for the experimental part:
Venous blood samples were withdrawn from monkey during the PET scan. […] At 22 h after injection, the activity in the blood decreased to 0.79±0.52% ID. Based on the percentage of injected dose in blood sample, the half life of ^64Cu-BaBaSar-RGD2 in blood pool was calculated as 12.1±4.0 min (n=3).

The conditions of series [3]: in vitro and in vivo, reference 23; cited from earlier work.
Series [4] can be described thus: Estimated human absorbed doses (Olinda/EXM) from PET biodistribution in macaque monkey. It is filed as in vivo. Here is the method: (§1) The PET images at 1, 5, 10, 20, 40, 60, 120, and 180 min after injection are disclosed in FIG. 4. […] The bladder content was visualized at 10 min after injection and more and more activity was accumulated in urine bladder content. […] Gallbladder uptake was not observed during the whole scan. […] The urinary bladder had the highest uptake, with 51.37%±8.73% of injected activity at 1 h post injection. The maximum uptake for the liver, and kidneys were 37.40±6.63% ID (9 min) and 26.79±4.35% ID (0.5 min) respectively.
The mean organ doses for the human phantom were calculated with Olinda/EXM using ^64Cu-BaBaSar-RGD2 biodistribution in monkey (Table 2). The kidneys had the highest radiation-absorbed doses (108.43 μGy/MBq), followed by the bladder wall (87.07 μGy/MBq). The mean effective dose of ^64Cu-BaBaSar-RGD2 was 15.30±2.21 μSv/MBq. […] The estimated doses for […] were higher by 18% because body and organ sizes of women are smaller than those men (data not shown).
Integrin αvβ3-targeted radiopharmaceutical ^64Cu-BaBaSar-RGD2 has been successfully synthesized with the one-step kit method. The straightforward method greatly simplifies the production process and benefits the clinical application of ^64Cu-BaBaSar-RGD2. Human radiation dosimetry of ^64Cu-BaBaSar-RGD2 was estimated after intravenous administration in macaque monkey, by PET imaging and OLINDA/EXM calculations. The critical organs were kidneys and urinary bladder wall. The mean effective dose, determined with the male adult model, was […]. […] Therefore, ^64Cu-BaBaSar-RGD2 can safely be used in human scan for further evaluation of its performance as an integrin-targeting probe.

Series [5] in a line: PET/CT biodistribution in macaque monkey. It is filed as in vivo. The following applies: for tissue uptake dose: monkey, iv, total radioactivity. As for the experimental part: FIG. 4: Decay-corrected anterior maximum-intensity projections of PET/CT at 1, 5, 10, 20, 40, 60, 120, and 180 min after injection of ^64Cu-BaBaSar-RGD2 in macaque monkey.
as §1

The nature of series [6]: Vital signs after injection in macaque monkey. It is filed as in vivo. The following applies: 13.1-19.7 MBq/kg, during and 24-h after PET scan. As for the experimental part:
as §1

In a further series the test system is U87MG glioblastoma tumor. The following applies: cited from earlier work.
The mark [7] stands for this setting: human phantom, Olinda/EXM, monkey biodistribution, Mean ± SD.
Setting [8] is: male human phantom, Olinda/EXM, monkey biodistribution, Mean ± SD.

“And” between values parts separate entries of the source, which are not always exact repeats. Equal entries are not always repeated. Where two headings read alike, the source gives them in different places.

`OC[C@H]1OC(O)[C@H]([18F])[C@@H](O)[C@@H]1O` (stereo partly drawn) [^18F-FDG, 2-deoxy-2-[^18F]fluoro-D-glucose]: the “Estimated dose in a whole-body PET scan” value in series [1] is reported as 6.23 mSv.
As to `N=C(N)NCCC[C@@H]1NC(=O)[C@H](CCCCNC(=O)c2ccc(CNC34CNCCNCC(NCc5ccc(C(=O)NCCCC[C@@H]6NC(=O)[C@@H](Cc7ccc(O)cc7)NC(=O)[C@H](CC(=O)O)NC(=O)CNC(=O)[C@H](CCCNC(=N)N)NC6=O)cc5)(CNCCNC3)CNCCNC4)cc2)NC(=O)[C@@H](Cc2ccc(O)cc2)NC(=O)[C@H](CC(=O)O)NC(=O)CNC1=O` [^64Cu-BaBaSar-RGD2, metal not drawn], the “Activity remaining in blood” value in series [2] (3 h after injection, decay corrected) stood at 2.88±0.88 % ID. Further, the “Activity remaining in blood (range)” value in series [2] (3 h after injection, range) is 2.07-3.82 % ID. Also, the “Activity in the blood” value in series [2] (22 h after injection) worked out at 0.79±0.52 % ID. Also, in series [2] (decay corrected activity per unit of blood sample), the “Clearance from the blood” value was “cleared rapidly from the blood”. In addition, the Stability entry in series [3] was “great stability both in vitro and in vivo”. Also, the “Effective dose for the non-voiding model” value in series [4] (925-MBq administrated into human subject) is listed as 14.2 mSv. Also, the “Mean effective dose, male adult model” value in series [4] (OLINDA/EXM, intravenous administration in macaque monkey) is recorded as 15.30±2.21 Sv/MBq. Moreover, the “Estimated doses for the female human, higher than male by” value in series [4] (female versus male human phantom) was 18%. For the same compound, in series [4] (setting [7]), the “Estimated human absorbed dose, Ovaries” value is given as 2.88 ± 0.44 μGy/MBq and the “Estimated human absorbed dose, Uterus” value is on record as 4.16 ± 0.63 μGy/MBq. Besides, in series [4] (setting [8]), the “Effective Dose (mean)” value was 15.30±2.21 μSv/MBq; the “Estimated human absorbed dose, Adrenals” value is reported as 3.34 ± 0.52 μGy/MBq; the “Estimated human absorbed dose, Brain” value is 1.27 ± 0.22 μGy/MBq; the “Estimated human absorbed dose, Breasts” value is 1.34 ± 0.23 μGy/MBq. In series [4] (setting [8]), the “Estimated human absorbed dose, Gall bladder Wall” value was 3.07 ± 0.49 μGy/MBq; the “Estimated human absorbed dose, Heart Wall” value was 4.39 ± 0.62 μGy/MBq; the “Estimated human absorbed dose, Kidneys” value was 108.43 μGy/MBq and 108.43 ± 16.41 μGy/MBq; the “Estimated human absorbed dose, LLI Wall” value was 2.86 ± 0.44 μGy/MBq. Further, in series [4] (setting [8]), the “Estimated human absorbed dose, Liver” value is 7.54 ± 1.15 μGy/MBq; the “Estimated human absorbed dose, Lungs” value is 1.67 ± 0.28 μGy/MBq; the “Estimated human absorbed dose, Muscle” value is 1.88 ± 0.31 μGy/MBq; the “Estimated human absorbed dose, Osteogenic Cells” value is 7.01 ± 0.91 μGy/MBq. Also, in series [4] (setting [8]), the “Estimated human absorbed dose, Pancreas” value is listed as 2.86 ± 0.45 μGy/MBq; the “Estimated human absorbed dose, Red Marrow” value is 9.29 ± 1.02 μGy/MBq; the “Estimated human absorbed dose, Skin” value is 1.38 ± 0.24 μGy/MBq; the “Estimated human absorbed dose, Small Intestine” value is recorded as 4.53 ± 0.68 μGy/MBq. Also, in series [4] (setting [8]), the “Estimated human absorbed dose, Spleen” value is reported as 6.78 ± 0.88 μGy/MBq; the “Estimated human absorbed dose, Stomach Wall” value is 2.11 ± 0.34 μGy/MBq; the “Estimated human absorbed dose, Testes” value is on record as 2.03 ± 0.33 μGy/MBq; the “Estimated human absorbed dose, Thymus” value was 1.56 ± 0.26 μGy/MBq. In series [4] (setting [8]), the “Estimated human absorbed dose, Thyroid” value was 1.39 ± 0.24 μGy/MBq; the “Estimated human absorbed dose, Total Body” value is listed as 2.76 ± 0.42 μGy/MBq; the “Estimated human absorbed dose, ULI Wall” value is given as 2.47 ± 0.39 μGy/MBq; the “Estimated human absorbed dose, Urinary Bladder Wall” value is 87.07 μGy/MBq and 87.07 ± 12.38 μGy/MBq. Also, the Urinary bladder uptake in series [5] (1 h post injection, bladder not voided (anesthesia)) is 51.37%±8.73%. Also, the “Activity in gallbladder, small intestine, upper and lower large intestine” value in series [5] (3 h post injection) was 8.62%±1.41%. In addition, the Gallbladder uptake entry in series [5] (during the whole scan) is on record as “not observed”. Further, the tissue uptake dose in series [5] (kidneys, at 0.5 min, read-out: Maximum uptake for the kidneys) came out at 26.8 ± 4.35 %ID. Further, in series [5] (liver, at 9 min, read-out: Maximum uptake for the liver), the tissue uptake dose is 37.4 ± 6.63 %ID. For the same compound, the “Effects on vital signs (blood pressure, pulse, electrocardiogram)” value in series [6] was “no observable effects on vital signs”. Also, the Tumor uptake entry with U87MG glioblastoma tumor (U87MG glioblastoma tumor bearing mice, reference 23) is listed as “high tumor uptake”. For the same compound, the Normal organ uptake entry in the series with U87MG glioblastoma tumor (mouse, in vivo) is given as “low normal organ uptake”.

The values are drawn from patent US11253617B2, “One step 64Cu-BaBaSar-RGD2 production method” (UNIVERSITY OF SOUTHERN CALIFORNIA, priority 2017, dated 2022).
